These results are taken from US20070190054A1.

Experiment [1] has as its target murine C3 or a fragment of C3, deposited on particles opsonized with mouse serum (mouse) (UniProt P01027). Put plainly: cell-based or functional assay.
Experiment [2] deals with C3b dimers (C3b2) (human) (UniProt P01024). Nature of the experiment: SPR, CRIg-Fc captured on a CM5 chip via an antibody to the Fc tag, dimeric C3b injected, response at equilibrium. (Surface plasmon resonance follows binding to a sensor surface in real time, without labels.)
Experiment [3] has as its target C3b (purified; species not stated in Examples 12, 13, 19, 20) (UniProt P01024). Nature of the experiment: ELISA. The settings on record: Fc fusion. Background: An ELISA detects its analyte on a solid surface through an enzyme-linked reagent.
Experiment [4] concerns the target murine C3 or a fragment of C3, deposited on particles opsonized with mouse serum (mouse) (UniProt P01027). Nature of the experiment: flow cytometry. The settings on record: Fc fusion. Background: A flow cytometer gives signals particle by particle.
Target sequence in this assay (P01027 25-666, chain 1 of 2): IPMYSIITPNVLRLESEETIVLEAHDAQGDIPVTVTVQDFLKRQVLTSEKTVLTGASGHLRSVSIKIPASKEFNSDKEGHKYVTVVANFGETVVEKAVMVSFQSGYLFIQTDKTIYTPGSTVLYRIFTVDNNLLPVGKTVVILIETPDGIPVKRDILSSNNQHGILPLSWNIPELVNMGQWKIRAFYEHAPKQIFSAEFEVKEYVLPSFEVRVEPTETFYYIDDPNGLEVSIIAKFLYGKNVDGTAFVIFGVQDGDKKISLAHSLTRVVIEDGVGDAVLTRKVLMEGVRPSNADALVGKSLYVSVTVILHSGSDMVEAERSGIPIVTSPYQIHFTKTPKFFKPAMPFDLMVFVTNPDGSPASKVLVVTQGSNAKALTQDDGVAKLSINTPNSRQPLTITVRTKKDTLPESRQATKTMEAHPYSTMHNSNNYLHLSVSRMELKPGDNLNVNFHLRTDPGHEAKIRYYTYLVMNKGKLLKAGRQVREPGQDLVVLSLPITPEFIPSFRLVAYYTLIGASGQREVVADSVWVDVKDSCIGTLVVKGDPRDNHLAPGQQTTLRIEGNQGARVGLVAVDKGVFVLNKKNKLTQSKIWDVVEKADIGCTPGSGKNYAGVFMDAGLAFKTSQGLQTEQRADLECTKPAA
Target sequence in this assay (P01027 749-1663, chain 2 of 2): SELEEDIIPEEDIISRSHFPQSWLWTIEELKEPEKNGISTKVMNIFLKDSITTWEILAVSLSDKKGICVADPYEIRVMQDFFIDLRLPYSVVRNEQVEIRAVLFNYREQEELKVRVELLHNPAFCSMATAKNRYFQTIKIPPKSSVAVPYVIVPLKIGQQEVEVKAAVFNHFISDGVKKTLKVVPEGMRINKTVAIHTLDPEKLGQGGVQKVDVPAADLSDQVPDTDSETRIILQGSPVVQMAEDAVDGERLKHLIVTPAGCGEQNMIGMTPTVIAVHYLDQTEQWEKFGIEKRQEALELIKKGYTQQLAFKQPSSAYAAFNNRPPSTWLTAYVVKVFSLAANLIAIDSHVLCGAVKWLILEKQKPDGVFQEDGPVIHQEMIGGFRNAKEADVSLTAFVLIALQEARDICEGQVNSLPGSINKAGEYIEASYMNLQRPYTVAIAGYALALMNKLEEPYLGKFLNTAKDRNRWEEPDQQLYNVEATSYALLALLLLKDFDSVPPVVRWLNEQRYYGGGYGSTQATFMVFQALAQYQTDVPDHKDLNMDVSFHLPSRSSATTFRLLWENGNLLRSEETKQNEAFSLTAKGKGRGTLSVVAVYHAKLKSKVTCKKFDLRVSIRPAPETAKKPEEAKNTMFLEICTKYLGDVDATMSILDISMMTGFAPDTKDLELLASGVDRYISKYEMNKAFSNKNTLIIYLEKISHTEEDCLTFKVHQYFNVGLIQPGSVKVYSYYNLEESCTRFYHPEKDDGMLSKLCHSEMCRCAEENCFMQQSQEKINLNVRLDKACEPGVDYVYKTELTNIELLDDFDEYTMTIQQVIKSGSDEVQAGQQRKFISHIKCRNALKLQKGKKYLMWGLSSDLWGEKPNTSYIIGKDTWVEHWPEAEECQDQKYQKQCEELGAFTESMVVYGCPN

The substance “complement receptor 3 (CR3) on mouse Kupffer cells (from UniProt P05555 17-1153; P11835 24-771)” returned a further reduction in rosette formation with the addition of CR3 blocking antibody in experiment [1] of less than 20%.
With “huCRIg(L)-Fc fusion protein (from UniProt Q9Y279 20-283)”, the Kd – broadly, the equilibrium constant for the complex coming apart – in experiment [2] came to 131 nM.
Still for that read-out and setting: for “huCRIg(S)-Fc fusion protein (from UniProt Q9Y279 20-283)” the value was 44 nM.
Consider “human CRIg-Fc fusion protein (long or short form not specified) (from UniProt Q9Y279 20-283)”, for which the equilibrium dissociation constant (Kd) in experiment [3] is 75 nM.
Consider “murine CRIg expressed on the cell surface (receptor)”, for which the reduction in E-IgM rosetting of CRIg ko KCs compared to CRIg wt KCs in experiment [1] came out at 60%.
As to murine CRIg-Fc fusion protein, the Kd amounted to 17 nM in experiment [4] and 50 nM in experiment [3].
